PMC5231900 (Molecular Biology of the Cell, 2017)

Tests used:
Assay in all cases: pull-down
[1] = target: wild-type Vps39-Vps11 complex (yeast, UniProt Q07468;P12868)
[2] = target: wild-type HOPS complex purified via Vps41-TAP (yeast, UniProt P38959;Q07468;P20795;P12868;Q03308;P27801)
[3] = target: wild-type HOPS complex purified via Vps39-TAP (yeast, UniProt Q07468;P38959;P20795;P12868;Q03308;P27801)
[4] = target: Vps41-Vps3-class C hybrid complex (yeast, UniProt P38959;P23643;P20795;P12868;Q03308;P27801)

Measured: binding result

Sequence of wild-type Vps39-Vps11 complex (Q07468 whole entry, chain 1 of 2): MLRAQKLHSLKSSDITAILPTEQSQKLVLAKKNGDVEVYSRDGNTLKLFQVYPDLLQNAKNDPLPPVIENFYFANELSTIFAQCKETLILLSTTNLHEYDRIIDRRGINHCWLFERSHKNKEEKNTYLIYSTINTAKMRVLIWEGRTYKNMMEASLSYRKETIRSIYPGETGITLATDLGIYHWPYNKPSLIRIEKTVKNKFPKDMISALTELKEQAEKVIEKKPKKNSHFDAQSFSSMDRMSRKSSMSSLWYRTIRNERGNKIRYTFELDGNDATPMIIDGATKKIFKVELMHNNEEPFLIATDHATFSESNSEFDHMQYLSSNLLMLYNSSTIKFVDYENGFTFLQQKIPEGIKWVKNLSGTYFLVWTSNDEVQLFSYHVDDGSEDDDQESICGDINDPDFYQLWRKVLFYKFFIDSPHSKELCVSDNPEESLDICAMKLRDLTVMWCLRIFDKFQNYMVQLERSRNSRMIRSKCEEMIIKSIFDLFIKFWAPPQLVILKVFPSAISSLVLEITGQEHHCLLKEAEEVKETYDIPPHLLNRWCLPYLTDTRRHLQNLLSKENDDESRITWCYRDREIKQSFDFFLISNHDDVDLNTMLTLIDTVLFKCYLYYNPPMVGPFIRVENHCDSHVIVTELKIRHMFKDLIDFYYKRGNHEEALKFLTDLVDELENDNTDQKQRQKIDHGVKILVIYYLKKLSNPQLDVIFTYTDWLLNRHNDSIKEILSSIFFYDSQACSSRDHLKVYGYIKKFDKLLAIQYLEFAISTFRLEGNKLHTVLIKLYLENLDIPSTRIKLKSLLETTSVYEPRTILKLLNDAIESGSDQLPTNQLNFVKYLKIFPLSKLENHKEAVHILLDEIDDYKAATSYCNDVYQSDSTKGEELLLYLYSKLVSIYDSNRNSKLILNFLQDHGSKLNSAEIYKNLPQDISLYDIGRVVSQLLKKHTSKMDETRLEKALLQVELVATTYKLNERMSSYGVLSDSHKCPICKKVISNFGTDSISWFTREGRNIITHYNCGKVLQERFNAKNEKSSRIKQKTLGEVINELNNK
Sequence of wild-type Vps39-Vps11 complex (P12868 whole entry, chain 2 of 2): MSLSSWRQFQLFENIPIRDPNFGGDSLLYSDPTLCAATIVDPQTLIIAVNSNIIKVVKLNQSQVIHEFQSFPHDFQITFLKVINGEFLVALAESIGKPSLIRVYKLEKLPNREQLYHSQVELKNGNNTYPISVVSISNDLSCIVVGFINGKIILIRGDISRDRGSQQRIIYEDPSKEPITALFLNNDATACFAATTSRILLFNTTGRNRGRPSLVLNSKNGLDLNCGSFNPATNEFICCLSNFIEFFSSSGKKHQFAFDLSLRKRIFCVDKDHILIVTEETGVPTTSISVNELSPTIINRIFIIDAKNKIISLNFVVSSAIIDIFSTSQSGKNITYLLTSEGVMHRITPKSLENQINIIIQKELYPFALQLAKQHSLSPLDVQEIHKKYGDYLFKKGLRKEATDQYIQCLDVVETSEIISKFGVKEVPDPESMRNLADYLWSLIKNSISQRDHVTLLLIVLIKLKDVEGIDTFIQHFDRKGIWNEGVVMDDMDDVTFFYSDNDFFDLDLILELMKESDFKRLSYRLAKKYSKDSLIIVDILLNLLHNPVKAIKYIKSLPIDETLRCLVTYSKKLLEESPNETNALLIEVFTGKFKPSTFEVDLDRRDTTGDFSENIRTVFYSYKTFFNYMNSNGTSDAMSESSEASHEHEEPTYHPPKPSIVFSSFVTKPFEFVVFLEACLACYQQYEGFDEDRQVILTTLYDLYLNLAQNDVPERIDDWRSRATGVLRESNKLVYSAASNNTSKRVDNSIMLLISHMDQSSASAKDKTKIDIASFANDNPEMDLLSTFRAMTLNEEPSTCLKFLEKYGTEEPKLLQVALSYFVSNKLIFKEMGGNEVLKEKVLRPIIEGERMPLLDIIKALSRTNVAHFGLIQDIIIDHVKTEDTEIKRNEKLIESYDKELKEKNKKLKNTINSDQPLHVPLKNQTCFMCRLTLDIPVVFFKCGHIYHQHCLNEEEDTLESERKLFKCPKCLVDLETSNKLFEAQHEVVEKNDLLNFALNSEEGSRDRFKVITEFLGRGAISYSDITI

B1: GST-Ypt7 (natural protein)
chain: MSSRKKNILKVIILGDSGVGKTSLMHRYVNDKYSQQYKATIGADFLTKEVTVDGDKVATMQVWDTAGQERFQSLGVAFYRGADCCVLVYDVTNASSFENIKSWRDEFLVHANVNSPETFPFVILGNKIDAEESKKIVSEKSAQELAKSLGDIPLFLTSAKNAINVDTAFEEIARSALQQNQADTEAFEDDYNDAINIRLDGENNSCSC
binds: all assays above
